Results from the supplement of paper PMC9732359.
± gives the uncertainty stated by the source.

Assay: protein stability index of a GFP-peptide fusion (yeast GPS) (PSI 1-4); higher = more stable; sorted into four equal gates, so the index is relative within each strain
Method in brief: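 Mid-log yeast cultures in leucine-free medium, carrying a pooled plasmid library, were sorted into four equal gates by their GFP/Cherry fluorescence ratio. Each plasmid expressed Cherry along with GFP fused upstream of a tiled 17-residue yeast protein peptide. Plasmids recovered from each gate were PCR-amplified and Illumina-sequenced, with reads assigned to strains by barcodes. The protein stability index was obtained by summing each gate's read frequency weighted by its gate number.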

Sequence | protein stability index (doa10∆) | protein stability index (pdr5∆) | protein stability index (san1∆) | protein stability index (ubr1∆)
GSNNGFGNKPAGSTGFS [YGR119C/NUP57] | 1.65 ± 0.076 | 1.24 ± 0.083 | 1.27 ± 0.15 | 2.22 ± 0.16
GSNQQSSTGGGLFGNKP [YGR119C/NUP57] | 3.36 ± 0.093 | 3.28 ± 0.084 | 3.23 ± 0.058 | 3.28 ± 0.042
GSNVLKSGKTIVITSIT [RRP43] | 1.72 ± 0.063 | 2.57 ± 0.061 | 2.41 ± 0.067 | 2.33 ± 0.066
GSQFIVVSLKEGMFANA [SMC2] | – | 3.64 ± 0.24 | 3.44 ± 0.2 | 3.4 ± 0.057
GSTGGLGASFGQQQQQS [YGL172W/NUP49] | 2.76 ± 0.2 | 2.81 ± 0.076 | 2.12 ± 0.12 | 3.1 ± 0.1
GSTSLIEGMEQRIIKEL [ARP7] | 3.19 ± 0.12 | 3.23 ± 0.12 | 2.98 ± 0.24 | 2.71 ± 0.21
GSVFNMNGNTNANTVFA [YOR098C/NUP1] | 2.29 ± 0.095 | 3 ± 0.12 | 3.01 ± 0.17 | 2.44 ± 0.066
GTENTERPPLLPILPIQ [YOR098C/NUP1] | 2.42 ± 0.17 | 3.08 ± 0.17 | – | –
GTFGGDGMYSESKLSLE [FAS2] | 2.91 ± 0.046 | 2.66 ± 0.051 | 3.35 ± 0.036 | 2.87 ± 0.04
GTFKSTLDREYITLKAT [QCR2] | 1.39 ± 0.065 | 1.44 ± 0.044 | 1.51 ± 0.099 | 1.49 ± 0.047
GTGLQSYLEERERQVNE [RPC53] | 3.17 ± 0.16 | 3.24 ± 0.12 | 3.14 ± 0.11 | 3.25 ± 0.13
GTGRAVARIPRVGGGGT [RPL4A] | – | – | 2.68 ± 0.21 | –
GTLDINPDDDYGFKQEI [FAS1] | 3.12 ± 0.26 | 3.21 ± 0.15 | 2.79 ± 0.099 | 3.04 ± 0.086
GTLGEIFIRCNNVLYIR [SMX3] | 3.57 ± 0.21 | 3.27 ± 0.1 | 2.9 ± 0.1 | 3.26 ± 0.1
GTSLKVAPVSEIVNMVP [SIR2] | 2.24 ± 0.089 | 2.65 ± 0.089 | 2.7 ± 0.069 | 2.37 ± 0.058
GTTATGTGLFGQQTAQP [YGR119C/NUP57] | 2.91 ± 0.16 | 2.76 ± 0.079 | 3.02 ± 0.18 | 3 ± 0.14
GTWSAKEAVFKSLGVKS [FAS2] | 2.94 ± 0.088 | 3.34 ± 0.089 | 3.23 ± 0.1 | 2.88 ± 0.094
GVDAMSVDDLKKLNKNK [RPL1A] | 3.33 ± 0.078 | 3.14 ± 0.12 | 3.25 ± 0.058 | 3.73 ± 0.11
GVHDGEVEPALLLLQDY [RPN1] | 3.13 ± 0.2 | 3.46 ± 0.17 | – | 2.44 ± 0.24
GVHTGQFIYAGKKASLN [RPL2A] | – | 3.51 ± 0.19 | 3.15 ± 0.1 | 3.4 ± 0.12
GVIALGQFVTLGCTLVT [RMP1] | 2.65 ± 0.24 | 1.36 ± 0.15 | 1.18 ± 0.15 | 1.5 ± 0.12
GVLLRDAHGVTQARVIT [RPS13] | 2.4 ± 0.075 | 2.57 ± 0.093 | 2.85 ± 0.14 | 2.27 ± 0.082
GVTDLFRHFIGIKAKHD [ISW2] | 1.2 ± 0.13 | 1.43 ± 0.11 | – | –
GVTSLGIKATNGVVIAT [PRE8] | 2.82 ± 0.14 | 2.62 ± 0.16 | 3.05 ± 0.1 | 3.28 ± 0.29
GVTSLIKNLGLPSDRCS [RPP1] | 2.29 ± 0.068 | 2.26 ± 0.072 | 1.5 ± 0.12 | 1.69 ± 0.062
GWYHSHPGFGCWLSSVD [RPN11] | 2.72 ± 0.12 | 3.09 ± 0.072 | 2.35 ± 0.087 | 2.64 ± 0.12

Sequence | protein stability index (doa10∆) | protein stability index (pdr5∆) | protein stability index (san1∆) | protein stability index (ubr1∆)
GYVETPRGLRSLTTVWA [RPL3] | 1.75 ± 0.29 | – | – | –
HAERDLALAETLKLRAR [SRP68] | 2.95 ± 0.15 | 2.74 ± 0.27 | – | –
HAGTAIGIMASDGIVLA [PRE9] | 2.96 ± 0.095 | 3.02 ± 0.14 | 3.09 ± 0.1 | 2.42 ± 0.14
HALYLAPSGIRMHLAPA [SSN2] | 1.32 ± 0.085 | 2.05 ± 0.085 | 2.09 ± 0.13 | 2.04 ± 0.061
HDELDMNECIADQDMED [ESC2] | 3.22 ± 0.092 | 2.64 ± 0.11 | 2.87 ± 0.07 | 2.97 ± 0.074
HDFIKGLIMLNLQPASV [NUT1] | 1.83 ± 0.059 | 1.24 ± 0.071 | 1.22 ± 0.14 | 1.24 ± 0.065
HDGGFDLVHIKDSLDNT [RPS4A] | 2.05 ± 0.079 | 2.26 ± 0.06 | 2.73 ± 0.12 | 2.33 ± 0.04
HEAYSIIEKITDQILQL [RRP45] | 2.55 ± 0.22 | 2.31 ± 0.2 | – | –
HELITNIGETAGVVQDI [RPB9] | 2.82 ± 0.066 | 2.79 ± 0.054 | 3.27 ± 0.07 | 3.22 ± 0.057
HFELGGEKKQKGQALQF [RPL42A] | 2.72 ± 0.17 | 2.88 ± 0.1 | 2.46 ± 0.094 | 2.76 ± 0.13
HFSKDDYSPESKGFVEN [RPO21] | 2.88 ± 0.17 | 2.28 ± 0.17 | – | –
HFVQEEPLAFYLEESFT [RGR1] | 2.32 ± 0.044 | 2.43 ± 0.039 | 2.67 ± 0.04 | 2.69 ± 0.031
HGGGNHQHIGKASTISR [RPL2A] | 3.18 ± 0.051 | 3.31 ± 0.052 | 3.08 ± 0.039 | 3.11 ± 0.04
HGIVFQHPFPLAHSQHR [SSN2] | 2.14 ± 0.066 | 2.23 ± 0.068 | 2.01 ± 0.085 | 2.38 ± 0.078
HGMTLRESFEDNVVRFL [RPO21] | 3.27 ± 0.098 | 3.09 ± 0.12 | 3.29 ± 0.089 | 3.17 ± 0.078
HGQKGVCGIIVKQEDMP [RET1] | 2.93 ± 0.24 | 1.35 ± 0.16 | – | –
HIGHSALKGPVRDKLDE [DPB4] | 3.29 ± 0.085 | 3.18 ± 0.068 | 3.11 ± 0.084 | 3.2 ± 0.083
HIILDTISECNLYDDVK [MED1] | 2.49 ± 0.073 | 3.18 ± 0.087 | 3.19 ± 0.067 | 3 ± 0.11
HILFQNNPDMMIQPPQQ [ROX3] | 2.94 ± 0.062 | 2.96 ± 0.07 | 3.06 ± 0.066 | 3.02 ± 0.046
HIRRMVPLAMGIVSVSD [RPN1] | 1.32 ± 0.039 | 1.61 ± 0.052 | 1.55 ± 0.083 | 1.57 ± 0.044
HISKIIGLDTQQVEGKL [RPN6] | 2.95 ± 0.071 | 3.43 ± 0.093 | 2.9 ± 0.065 | 2.86 ± 0.059
HKHALHGTAKALAAAKK [RPL29] | 2.398 ± 0.023 | 2.425 ± 0.02 | 2.24 ± 0.023 | 2.323 ± 0.018
HKYVLTLQLYMVHREFL [RGR1] | 1.38 ± 0.039 | 1.47 ± 0.037 | 1.86 ± 0.055 | 2.1 ± 0.034
HLGLDDPQDVFNYNIFM [SIR2] | 2.99 ± 0.087 | 3.2 ± 0.14 | 3.24 ± 0.13 | 3.26 ± 0.078
HLHDAVFVNTGLQNVRK [SWP82] | 2.99 ± 0.14 | 2.84 ± 0.076 | 2.77 ± 0.1 | 2.73 ± 0.088
